According to patent US20240299504A1, “COMPOSITIONS AND METHODS FOR TREATING ALZHEIMERS DISEASE” (priority 2023, published 2024):

Target: T1, PTH receptor (PTH1R), parathyroid hormone type 1 receptor, on mouse astrocytes (mouse, UniProt P41593 27-591)
T1 construct: whole, on cells; Endogenous receptor of mouse cells; not isolated or expressed recombinantly
T1 sequence (looked up): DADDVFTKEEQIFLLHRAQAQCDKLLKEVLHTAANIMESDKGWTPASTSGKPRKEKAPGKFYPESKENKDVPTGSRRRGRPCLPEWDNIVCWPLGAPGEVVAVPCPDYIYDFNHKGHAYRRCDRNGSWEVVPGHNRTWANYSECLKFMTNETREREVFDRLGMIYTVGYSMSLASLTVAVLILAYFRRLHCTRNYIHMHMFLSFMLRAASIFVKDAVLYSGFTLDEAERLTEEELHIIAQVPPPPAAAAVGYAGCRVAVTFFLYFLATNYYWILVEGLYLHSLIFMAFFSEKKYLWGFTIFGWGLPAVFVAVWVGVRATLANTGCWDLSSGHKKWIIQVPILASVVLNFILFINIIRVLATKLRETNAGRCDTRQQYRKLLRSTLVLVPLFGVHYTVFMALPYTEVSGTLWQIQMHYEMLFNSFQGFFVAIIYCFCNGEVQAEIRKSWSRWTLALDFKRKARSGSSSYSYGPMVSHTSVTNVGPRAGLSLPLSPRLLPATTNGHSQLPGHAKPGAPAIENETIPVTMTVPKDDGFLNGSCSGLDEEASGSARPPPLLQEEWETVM
Assay: summary sentence of the example; inferred from Biotin-PTH1-34 co-staining with astrocytes, PTH1R expression and signalling in cultured astrocytes

binding result: binds
B1: Parathyroid hormone (human) PTH1-34 (TOCRIS Bioscience, Cat #3011/1) (peptide, UniProt P01270 32-65, looked up)
peptide: SVSEIQLMHNLGKHLNSMERVEWLRKKLQDVHNF
notes: range 1-34; Residues 1-34 count on mature PTH, not on the precursor; also called hPTH1-34; Teriparatide
